Experimental data from patent EP1088069B1.

Tests used:
Test in all cases: cell-based or functional assay
[1] = target: Angiostatin + Binding Domain (yeast two-hybrid bait fusion) (UniProt P00747)
[2] = target: Binding Domain alone
[3] = target: p53 + Binding Domain

Sequence of UniProt P00747 (P00747 99-459): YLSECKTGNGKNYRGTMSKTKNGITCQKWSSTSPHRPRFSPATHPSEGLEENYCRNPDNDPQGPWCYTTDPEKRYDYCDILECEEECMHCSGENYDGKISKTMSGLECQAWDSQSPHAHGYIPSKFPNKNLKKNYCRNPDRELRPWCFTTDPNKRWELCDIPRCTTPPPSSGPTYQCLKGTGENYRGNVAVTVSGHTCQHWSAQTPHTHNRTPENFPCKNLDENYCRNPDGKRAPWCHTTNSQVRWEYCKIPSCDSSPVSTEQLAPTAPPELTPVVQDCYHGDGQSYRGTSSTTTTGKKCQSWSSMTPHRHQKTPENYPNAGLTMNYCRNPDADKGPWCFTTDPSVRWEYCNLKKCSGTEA

β-Gal Activity [1] [u]	β-Gal Activity [2] [u]	Substance	β-Gal Activity [3] [u]
< 0.04		Activation Domain alone (from UniProt P04386 768-881)	
15	0.07	Big3 - Activation Domain (yeast two-hybrid prey fusion) (from UniProt Q4VCS5 871-1013)	0.05
		SV40LT - Activation Domain (from UniProt P03070 84-708)	90
